# Test results: patent US20240059797A1 (GRITSTONE BIO, published 2024)
# B1: 4-anti-CD3-G2(1H11) (bispecific antibody)
# chain: not shown
# heavy: QVQLVQSGAEVKKPGASVKVSCKASGYTFTNYYMHWVRQAPGQGLEWMGMINPSGGGTSYAQKFQGRVTMTRDTSTSTVYMELSSLRSEDTAVYYCARGNPWELRLDYWGQGTLVTVSSGGGGSGGGGSGGGGSGGGGSDIQMTQSPSSLSASVGDRVTITCQASQDISNYLNWYQQKPGKAPKLLIYAASSLQSGVPSRFSGSGSGTDFTLTISSLQPEDFATYYCQQYYSYPFTFGPGTKVDIKGGGGSGGGGSEVQLVESGGGLVQPGGSLRLSCAASGFTFSTYAMNWVRQAPGKGLEWVGRIRSKYNNYATYYADSVKGRFTISRDDSKNTLYLQMNSLRAEDTAVYYCVRHGNFGDSYVSWFAYWGQGTLVTVSSASTKGPSVFPLAPSSKSTSGGTAALGCLVKDYFPEPVTVSWNSGALTSGVHTFPAVLQSSGLYSLSSVVTVPSSSLGTQTYICNVNHKPSNTKVDKRVEPKSCDKTHTCPPCPAPELLGGPSVFLFPPKPKDTLMISRTPEVTCVVVDVSHEDPEVKFNWYVDGVEVHNAKTKPREEQYQSTYRVVSVLTVLHQDWLNGKEYKCKVSNKALPAPIEKTISKAKGQPREPQVCTLPPSREEMTKNQVSLSCAVKGFYPSDIAVEWESNGQPENNYKTTPPVLDSDGSFFLVSKLTVDKSRWQQGNVFSCSVMHEALHNRFTQKSLSLSPGK
# light: QAVVTQEPSLTVSPGGTVTLTCGSSTGAVTTSNYANWVQQKPGKSPRGLIGGTNKRAPGVPARFSGSLLGGKAALTISGAQPEDEADYYCALWYSNHWVFGGGTKLTVLRTVAAPSVFIFPPSDEQLKSGTASVVCLLNNFYPREAKVQWKVDNALQSGNSQESVTEQDSKDSTYSLSSTLTLSKADYEKHKVYACEVTHQGLSSPVTKSFNRGEC
# notes: also called 4-G2(1H11)-αCD3
# How the values were obtained:
# [1] = target: T1, HLA-A*01:01_… (HLA-PEPTIDE target G2), recombinant biotinylated complex (human, enzymatically biotinylated (BirA)); assay: BLI
# T1 construct: also called G2-pHLA
# [2] = target: T2, HLA-A*01:01_… (G2) presented on cells (human); assay: flow cytometry, peptide-pulsed K562 cells
# T2 construct: whole, on cells; K562 transduced with HLA-A*01:01 and pulsed with peptide, or A375 transduced with a 10x peptide cassette; also called G2 on K562 or A375 cells
# Description: Cells were harvested, washed in PBS, and stained with eBioscience Fixable Viability Dye eFluor 450 for 15 minutes at room temperature. Following another wash in PBS+2% FBS, cells were resuspended with bispecifics at varying concentrations. Cells were incubated with bispecifics for 1 hour at 4° C. […] After incubating at 4° C. for 45 minutes and washing in PBS+2% FBS, cells were resuspended in PBS+2% FBS and analyzed by flow cytometry. […] All cell lines were stained and analyzed with bispecific binding using the same methods as the K562 cells.
# Flow cytometric analysis was performed on the Attune NxT Flow Cytometer (ThermoFisher) using the Attune NxT Software. Data was analyzed using FlowJo.
binder,measurement,setting,value
B1,binding result,[1],binds
same,binding result,[2],binds
